{"source": "the nanobody polyreactivity screen of Harvey et al. (2022)", "data": [{"experiment": "yeast display, Sf9 membrane polyspecificity reagent, FACS + sequencing; frameworks hold sequencing errors", "outline": "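Sorting gates, low and high (top ~1%), were placed on anti-HA fluorescence to track expression and on streptavidin fluorescence to track reagent binding. A clone's polyreactivity label is taken from the gate it came out of. The reagent was 10% biotinylated, detergent-solubilized Sf9 membrane, applied for 1 hour at 4 °C to galactose-induced yeast display cells.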", "values": [{"sequence": "QVQLVESGGGLVQAGGSLRLSCAASGRIFQRYVMGWYRQAPGKERELVASISWRGGSTYYADSVKGRFTISRDNAKNTVYLQMNSLKPEDTAVYYCAARRYTDYVRVAREMDYWGQGTQVSVSS", "polyreactivity (PSR sort gate)": "high polyreactivity"}, {"sequence": "QVQLVESGGGLVQAGGSLRLSCAASGLIFYYYAMGWYRQAPGKERELVAAITGSGGSTYYADSVKGRFTISRDNAKNTVYLQMNSLKPEDTAVYYCAADGIYTYEYWGQGTQVTVSS", "polyreactivity (PSR sort gate)": "low polyreactivity"}, {"sequence": "QVQLVESGGGLVQAGGSLRLSCAASGYTFFYAMAWYRQAPGKERELVASITSAASTTYADSVKGRFSISRDNAKNTVYLQMNSLKPEDTAVYYCAASHSWWFYPGYYYWGQGTQVTVSS", "polyreactivity (PSR sort gate)": "high polyreactivity"}, {"sequence": "QVQLVESGGGLVQAGGSLRLSCAASGITFQRYAMGWYRQAPGKERELVAAITRRGGSTYYADSVKGRFTISRDNAKNTVYLQMNILKPEDTAVYYCAADLFFKARGYDYWGQGTQVTVSS", "polyreactivity (PSR sort gate)": "high polyreactivity"}, {"sequence": "QVQLEESGGGLVQAGGSLRLSCAASGFISIPYAMGWYRQAPGKERELVASITRSGGNTYYADSVKGRFTISRDNAKNTVYLQMNSLKPEDTAVYYCNVVVYRWSPVSKLDYWGQGTQVTVSS", "polyreactivity (PSR sort gate)": "high polyreactivity"}, {"sequence": "QVQLVESGGGLVQAGGSLRLSCAASGFIFGYYAMGWYRQAPGKEREFVAAISARSGRTYYADSVKGRFTISRDNAKNTVYLQMNSLKPEDTAVYYCNTAYAYSGRYDYWGQGTQVTVSS", "polyreactivity (PSR sort gate)": "high polyreactivity"}, {"sequence": "QVQLVESGGGLVQAGGSLRLSCAASGRIFARNAMGWYIQAPWKERELVAAISWTGDSTYYADSVKGRFTISRDNAKNTVYLQMNSLKPEDTAVYYCNALVYHTKGDYGYWGQGTQVTVSS", "polyreactivity (PSR sort gate)": "low polyreactivity"}, {"sequence": "QVQLVESGGGLVQAGGSLRLSCAASGIIFRRYAMGWYRQAPGKERELVATITRSGSTNYADSVKGRFTISRDNAKNTVYLQMNSLKPEDTAVYYCNADYIRGGWYSEDYWGQGTQVTVSS", "polyreactivity (PSR sort gate)": "high polyreactivity"}, {"sequence": "QVQLVESGGGLVQAGGSLRLSCAASGSIFYTYAMGWYRQAPGKERELVAAISSGGSTNYADSVKGRFTISRDNPKNTVYLQMNSLKPEDTAVYYCAAEYTRSFYIYYRFGYWGQGTQVTVSS", "polyreactivity (PSR sort gate)": "high polyreactivity"}, {"sequence": "QVQLVESGGGLVQAGGSLRLSCAASGSIFTINAMGWYRQAPGKERELVAAISFSGGRTYYADSVKGRFTISRDNAKITVYLQMNSLKPEDTAVYYCAAPFYYYGVRFDYWGQGTQVTVSS", "polyreactivity (PSR sort gate)": "high polyreactivity"}, {"sequence": "QVQLVESGGGLVQAGGSLRLSCAASGSTSAWYAMGWYRQAPGKERQLVATISSRGGSTYYADSVKGRFTISRDNAKNTVYLQMNSLKPEDTAVYYCAARIGATYWVDWTHRAYDYWGQGTQVTVSS", "polyreactivity (PSR sort gate)": "high polyreactivity"}, {"sequence": "QVQLVESGGGLVQAGGSLRLSFAASGFTFRNYAMGWYRQAPGKERELVAAISTSGGRTYYADSVKGRFTISRDNAKNTVYLEMNSLKPEDTAVYYCNAGSGSYSYRYNYWGQGTQVTVSS", "polyreactivity (PSR sort gate)": "high polyreactivity"}, {"sequence": "QVQLVESGGGLVQAGGSLRLSCAASGRIFGYYAMGWYRQAPGKERELVAAISYSTGGTSTYADSVKGRFTISRDNAKNTVYLQMNSLKPDDTAVYYCAKRIFTSARLNYWGQGTQVTVSS", "polyreactivity (PSR sort gate)": "high polyreactivity"}, {"sequence": "QVQLVESGGGLVQAGGSLRLSCAASGGTLRYYAMGGYRQAPGKERELVAVITSSAGRTYYADSVKGRFTISRDNAKNTVYLQMNSLKPEDTAVYYCPAYDAYSPYQALYDYWGQGTQVTVSS", "polyreactivity (PSR sort gate)": "low polyreactivity"}, {"sequence": "QVQLVESGGGLVQAGGSLRLSCAASGRIFWRNTMGWYRQAPGKERELVAAINYSGGRTYYADSVKGRFTISRDNAKNTVYLQMNSLKPEDTAVYYCAATPPVATNGRYYYWGQGTQVTVSS", "polyreactivity (PSR sort gate)": "low polyreactivity"}, {"sequence": "QVQLVESGGGLVQAGGSLRLSCAASGFTFVRYTMGWYRQAPGKERELVAVIRRGGSTYYADSVKGRFTISRDNAKNTVYLQMNSLKPEDTAVYYCNALSALAVEDGYWGQGTQVTVSS", "polyreactivity (PSR sort gate)": "low polyreactivity"}, {"sequence": "QVQLVESGRGLVQAGGSLRLSCAASGSTFTEYAMGWYREAPGKERELFAAINRSGGGTYYADSVKGRFTISRDNAKNTVYLQINSLKPEDTADYYCAKDWYRRYIRDYWGQGTQVTVSS", "polyreactivity (PSR sort gate)": "high polyreactivity"}, {"sequence": "QVLLVESGGGLGQAGGSLRLSCAASGAIFVGYAMGWYRQAPGKEREMVAAISKSGGSTYYADSVKGRFTISRDNAKNTVYLQMKSLKPDDTAVYYCAAYPVRLVYSQHRYLYDYWGQGTQVTVSS", "polyreactivity (PSR sort gate)": "high polyreactivity"}, {"sequence": "QVQLVESGGGLVQAGGSLRLSCAASGIIFYDYAMGWYRQAPGKERELVAAITSGGSTNYADSVKGRFTISRDNAKNTVYLQMNSLKPEDTAVYYCAATYWSWISLRFYWGQGTQVTVSS", "polyreactivity (PSR sort gate)": "low polyreactivity"}, {"sequence": "QVQHVESGGGLVQAGGSLRLSCAASGRTFGINALGWYSQAPGNESELVADISGDGGNTYYADSVKGRFTISRDNAKNTVFLQMNSLKPEDTAVYFCATRYEKFRYDYWGQGTQVTVSS", "polyreactivity (PSR sort gate)": "low polyreactivity"}, {"sequence": "QVQLVESGGGLVQAGGSLRLSCAASGRISVVNAMGWYRQAPGQERELVAAIRRASTNYADSVKGRFTISRDNAKKTVYLQMNSLKPEDTAVYYCAARVYGINIFEYWGQATQVTVSS", "polyreactivity (PSR sort gate)": "high polyreactivity"}, {"sequence": "QVQLVESGGGLVQAAGSLRLSSAASGYTFYINAMGSYRQAPGKERELVATIRRRGGSTYYADSVKGRFTISRDNAKNTVYLQMNSLKPEDTAVYYCNADTLGGKYVYQYRRGFDYWGHGTQVTVSS", "polyreactivity (PSR sort gate)": "high polyreactivity"}, {"sequence": "QVQLVESGGGLVQAGGSLSLSCAASGRTYYYNAMGWYRQAPGKERELVAAITFSGGTTSYADSEKGRFTISRDNAKNTVYLQMNRLKPEDTEVYYCAARGYWGQGTQVTVSW", "polyreactivity (PSR sort gate)": "high polyreactivity"}, {"sequence": "QVQLVESGGGLVHAGGSLRLSCAACGRIFTYYAMGWYRQAPGKERELVAAITWSGGSTYYADSVKGRFTISRDNAKNTVYLQMNSLKPEDTAVYYCNAVVLHVTTDNSTFTTDDYWGQGTQVTVSS", "polyreactivity (PSR sort gate)": "low polyreactivity"}, {"sequence": "QVQLVESGGGLVQAGGSLRLSCAASGFVWYTMGWYRQAPGKERELVADITYRGGSTYYADSVKGRFTISRDNAKNTVYLQMNSLKPEDTAVYYCAAKPHWYWRYEYWGQGTQVTVSS", "polyreactivity (PSR sort gate)": "high polyreactivity"}, {"sequence": "QVQLVESGGGLFQAGGSLRLSSAASGSTFDPYAMGWSRQAPGKERELVATITYSGGRTYYADSVKGRFTISGDNAKNTVYLQMNSLKPEDTAVYYCAVDVVYWGGDYCGQGTQVTVSS", "polyreactivity (PSR sort gate)": "low polyreactivity"}, {"sequence": "QVQLVESGGGLVQAGGSLRLSCAASGRIFAYYAMGWYRQAPGKERELVAGISKSGGRTYYADSVKGRFTISRDNAKNTVYLQMNSLKPEDTAVYYCAVESYRRYYYWGQGTQVTVSS", "polyreactivity (PSR sort gate)": "high polyreactivity"}, {"sequence": "QDQLVESGGGLVQAGGSLRLSCAASGRIFVYYVMGWYRQAPGKERELVAAITYSGGSTYYADSVKVRFTISRDNAKNTVYLQMNSLKPEDTAVYACNKVDAFGIVRLYYWGQGTQVTVSS", "polyreactivity (PSR sort gate)": "low polyreactivity"}, {"sequence": "QLQLVESGGGLVQAGGSLRLSCAASGSTFPLYAMGWYRQSPGKERELVASITTGGGNTYYADSVKGRFTISRDNAKNTVYLKMNSLKPEDTAVDYCAKPYHIGLSGRRTYDYWGQGTQVTVSS", "polyreactivity (PSR sort gate)": "high polyreactivity"}, {"sequence": "QVQLVESGGGLVQAGGSLRLSCAASGRTFTGYAMGWYRQAPGKEREFVAAITQRGGSTYYADSVKGRFTISRDTAKNTVYLQMNSLKPEDTAVYYCAARRRYKMDYWGQGTQVTVSS", "polyreactivity (PSR sort gate)": "high polyreactivity"}, {"sequence": "QVQLVESGGGLVQAGGSLRLSCAASGRTCDRNTMGWYRQAPGKERELVAAISGSSARTYYADSVKGRFTISRDNAKNTVYLQMNSLKPEDTAVYYCNAEYGARAQHYEGDSWGQGTQVTVSS", "polyreactivity (PSR sort gate)": "high polyreactivity"}, {"sequence": "QVQLVESGGGLVQAGGSLRLSCAASGITFSKYAMGWYRQAPGKERELVAAITTSGVSTYYADSVKGRFTISRDNAKNTVYLQMNSLKPEDTAVYYCATELGWGGFYKYGHASQFDYWGQGTQVTVSS", "polyreactivity (PSR sort gate)": "low polyreactivity"}, {"sequence": "QVQLVESAGGLVQAGGSLRLSCAASGSIINRYAMGWYRQAPGKERELVAAITQSGGRTYYADSVKGRFTISRDNAKNTVYLQMNRLKPDDTAGYYCNAFRWYLYDYWGQGTLVTVSS", "polyreactivity (PSR sort gate)": "high polyreactivity"}, {"sequence": "QVQLVESGGGLVQAGGSLRLSCAASGRIFLKYTMGWYRQAPGKERELVAAISRGGSTYYADSVKGRFTISRDNAKNTVYLQMNSLKPEDTAVYYCAATSYRRTGYNYWGQGTQVTVSS", "polyreactivity (PSR sort gate)": "high polyreactivity"}, {"sequence": "QVQLVESGGGLVQAGGSLRLSCAASGSLFYSNTMGWYRQAPGKERELVAAISRGGSTYYADSVKGRFTISRDNAKNTVYLQMNSLKPEDTAVYYCAARYRWAPAYDYWGQGTQVTVSS", "polyreactivity (PSR sort gate)": "high polyreactivity"}, {"sequence": "QVQLVESGGGLVQAGGSLRLTCAASGRIFTRYSMGWYRKAPGKEREFVAAITNSGASTYYADSVKGRFTISRDNAKITVYLQMNSLKPEDTAVYYCAGDGPYWWDYDYWGQGTQETVSS", "polyreactivity (PSR sort gate)": "high polyreactivity"}, {"sequence": "HVQLVESGGGLVQAGGSLRLSCAASGSTFTRYVMGWYRQAPGKERELVAAISSGVSTYYADSVKGRFTISRDNAKNSVYLQMNSLKPEDTAVYYCDANRYRAREYKYWGQGTQVTVSS", "polyreactivity (PSR sort gate)": "high polyreactivity"}, {"sequence": "QVQLVESGGGLVQAGGSLRLSCAASGYTFQENAMGWYRQAPGKERELVAAISYGGGSTYYADSVKGRFTISRDNAKNTVYLQMNRLKPEDTAVYYCADDGGSAYAWYFAELYGYWGQGTQVTVSS", "polyreactivity (PSR sort gate)": "low polyreactivity"}, {"sequence": "QVQLVESGGGLVQAGGSLRLSCAASGLTFKRYAMGWYRQAPGKERELVASITGNGGSTYYADSVKGRFTISRDNAKNTVYLQMNSLKPEDTAVYYCNARRYVRTSQQPLYDYWGQGTQVTVSS", "polyreactivity (PSR sort gate)": "high polyreactivity"}, {"sequence": "QVQLVESGGGLVQAGGSLRLSCAASGSIFSVYAMGWYRQAPGKERELVAAINWDGTSTDYADSVKGRFTISRDNAKNTVYLQMNSLKPEDTAVYYCAAEGHTAFLVYRVSPLQYDYWGQGTQVTVSS", "polyreactivity (PSR sort gate)": "low polyreactivity"}, {"sequence": "QVQLVESGGGLVQAGGTLRLSCAASGRTFYYYTMGWYRQAPGKERDLVAAISSTGNTYYADSVKGRFTISRDNAKNSVYLQMNSLNPADTALYYCAASGGSSDAYWGQGTQVTVSS", "polyreactivity (PSR sort gate)": "high polyreactivity"}, {"sequence": "QVQLVESGGGLFQAGGSLRLSCAASGRTFWRYAMGWSRQAPGKERELVAAITSGGGSTFYADSVKGRFTISRDYAKNTVDLQMNILKAEVTAVYYCNREYRWGNSLYSRYDYWGQGTQVTVSS", "polyreactivity (PSR sort gate)": "high polyreactivity"}, {"sequence": "QVQLVESGGGLVQAGGSLRLSCAASGITFEYYTMGWYRQAPGKERELVAAITSGGSTYYADSVKGRFTISRDNAKNTVYLQMNSLKPEDTAVYYCNADWSATSGEWTWFQYDYWGQGTQVTVSS", "polyreactivity (PSR sort gate)": "high polyreactivity"}]}]}
